Test results from patent publication US20210395761.

Columns and labels:
[1] = molecular target: SPβc2 serine recombinase (SPβc2-HA-NLS) (Bacillus subtilis phage SPβc2) (UniProt O32006); assay: cell_activity; details: lettuce initial screen; attP gave 27; background level
[2] = test system: T1, SF370.1 serine recombinase (SF370.1-HA-NLS) (Streptococcus pyogenes phage 370.1); assay: cell_activity; details: lettuce; 1 colony without recombinase
T1 sequence: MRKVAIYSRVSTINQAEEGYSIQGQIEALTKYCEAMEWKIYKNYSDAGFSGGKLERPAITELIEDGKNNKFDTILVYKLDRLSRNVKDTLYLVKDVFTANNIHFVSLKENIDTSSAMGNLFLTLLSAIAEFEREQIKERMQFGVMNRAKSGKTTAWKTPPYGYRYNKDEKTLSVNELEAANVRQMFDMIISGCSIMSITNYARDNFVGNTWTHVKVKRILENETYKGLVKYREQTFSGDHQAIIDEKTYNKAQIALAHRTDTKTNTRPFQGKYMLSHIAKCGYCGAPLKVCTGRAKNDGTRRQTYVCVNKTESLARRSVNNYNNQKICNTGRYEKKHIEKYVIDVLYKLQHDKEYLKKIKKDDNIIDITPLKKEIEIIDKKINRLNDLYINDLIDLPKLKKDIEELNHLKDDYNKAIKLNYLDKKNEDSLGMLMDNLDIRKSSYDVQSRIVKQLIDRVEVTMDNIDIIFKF

Chain of SPβc2 serine recombinase (SPβc2-HA-NLS) (Bacillus subtilis phage SPβc2) (O32006 whole entry): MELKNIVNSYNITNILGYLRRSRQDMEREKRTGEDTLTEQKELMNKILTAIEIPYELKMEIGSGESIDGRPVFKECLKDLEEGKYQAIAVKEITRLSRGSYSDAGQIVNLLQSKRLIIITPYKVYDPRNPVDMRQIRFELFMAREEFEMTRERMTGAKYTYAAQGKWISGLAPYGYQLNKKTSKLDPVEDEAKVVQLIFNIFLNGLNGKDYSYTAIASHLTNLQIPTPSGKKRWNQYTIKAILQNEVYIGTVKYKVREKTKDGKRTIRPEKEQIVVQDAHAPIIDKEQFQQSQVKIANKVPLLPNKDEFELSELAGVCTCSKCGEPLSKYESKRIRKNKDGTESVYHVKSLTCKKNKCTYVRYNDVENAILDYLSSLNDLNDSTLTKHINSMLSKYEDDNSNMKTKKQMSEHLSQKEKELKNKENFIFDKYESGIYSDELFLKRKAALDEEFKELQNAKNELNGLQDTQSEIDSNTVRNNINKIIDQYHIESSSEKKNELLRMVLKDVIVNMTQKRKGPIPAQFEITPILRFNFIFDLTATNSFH

| Substance | activity [1] [GFP+ colony] | activity (GFP+ Kan resistant colonies) [2] |
| --- | --- | --- |
| siteless reporter plasmid | 1 |  |
| ATTTTTGTATCCAGTTCAATGGATATTTGATATAATCGTCTTAAAAAGGAGGTCGTGAAATGGATAAAAAAATACAGCGTTTTTCATGTACAACTATACTAGTTGTAGTGCCTAAATAATGCTTTTAAAACTTAAAAATAATATCGATGTTATCCATAGTAACCTCGACTCTATCTATCAATTGCTTAACTATCCTAGAT (double strand) [SF370 attP] |  | 4 |
